Data reported in patent US20190092871A1 (VIB VZW, published 2019).
Residue numbers refer to the chain shown, from its start.

B1: 2HCD43 (VHH)
VHH: QVQLQESGGGLVQPGGSLRLSCTASGFTLDYYAIGWLRQAPGKEREGVSCISSSGGSTNYADSVKGRFTISRDNAKNTVYLLMNSLKPEDTAVYYCAAERTWVSNYYCSGDGDGYDYDYWGQGTQVTVSS
notes: Whole entry = VHH-AAA-HA-His6 (pMECS construct)
B2: 2HCD25 (VHH)
VHH: QVQLQESGGGLAQAGGSLRLSCAASGRTFSMGWFRQAPGKEREFVAAITYSGGSPYYASSVRGRFTISRDNAKNTVYLQMNSLKPEDTAVYYCAANPTYGSDWNAENWGQGTQVTVSS
notes: Whole entry = VHH-AAA-HA-His6 (pMECS construct); also called hCD20Nb
B3: 2HCD78 (VHH)
VHH: B2 VHH with A12V, A14P
notes: as for B1
B4: 2MC39 (VHH)
VHH: QVQLQESGGGLAQAGNSLRISCVASGNTFDTRAMGWFRQAPGKEREFVAAISRSSFNTYYSDSVTGRFTISRDNAKNTVYLQMNSLKPEDTAVYYCAAGKYGMKWRDGADYWGQGTQVTVSS
notes: as for B1
B5: 2MC20 (VHH)
VHH: B4 VHH with A12V, A14T, N16G, I20L, V23A
notes: as for B1
B6: 2MC82 (VHH)
VHH: B4 VHH with A14E, N16G, I20L, T78M
notes: as for B1
B7: 2MC51 (VHH)
VHH: B4 VHH with A97V
notes: as for B1
B8: 2MC38 (VHH)
VHH: B4 VHH with A12V, N16E, A97V
notes: as for B1
B9: 2MC42 (VHH)
VHH: B4 VHH with L11S, A12V, A14T, N16G, S17T, R19T, I20L, K43E
notes: as for B1
B10: R2MUC70 (VHH)
VHH: QVQLQESGGGLVQAGGSLRLSCAASGRDFATYSMAWFRQAPGKERESVATISWSGQRTRYADSVKGRFTISRDNAKNTVYLQMNSLKPEDTAVYYCAAPRTWGEFPPTQYDSWGQGTQVTVSS
notes: as for B1
B11: 2MC52 (VHH)
VHH: B10 VHH with A23V, D28T, A30N, A35G, S47F, T50S, T58S, A98S
notes: as for B1
B12: 2MC57 (VHH)
VHH: B10 VHH with A98M
notes: Whole entry = VHH-AAA-HA-His6 (pMECS construct); also called mCD20 Nb
B13: R3MUC75 (VHH)
VHH: B10 VHH with L11S, A14T, A30S, A35G
notes: as for B1
B14: R3MUC56 (VHH)
VHH: B10 VHH with G16D
notes: as for B1
B15: R2MUC21 (VHH)
VHH: B10 VHH with G16D, A30S, A35G
notes: as for B1
B16: R3MUC58 (VHH)
VHH: B10 VHH with A14P
notes: as for B1
B17: R3MUC22 (VHH)
VHH: B10 VHH with D28T, A30S, A35G, S47F, T50I
notes: as for B1
B18: R2MUC85 (VHH)
VHH: B10 VHH with A14P, A24T
notes: as for B1
B19: R3MUC57 (VHH)
VHH: B10 VHH with K43E
notes: as for B1
B20: R3MUC66 (VHH)
VHH: B10 VHH with A35T, K87R
notes: as for B1
B21: R3MUC17 (VHH)
VHH: B10 VHH with Q13P
notes: as for B1
B22: 2HCD40 (VHH)
VHH: QVQLQESGGGLVQAGGSLRLSCAASGRTVGSYSMGWFRQAPGKEREFVAAVTWSGASPYYADSVKGRFTISRDNAKNTVYLQMNSLKPEDTAVYYCAANPTYSGGWHAEYWGQGTQVTVSS
notes: as for B1
B23: 2HCD17 (VHH)
VHH: B22 VHH with T52I
notes: as for B1
B24: 2HCD88 (VHH)
VHH: B22 VHH with G16D
notes: as for B1
B25: 2HCD68 (VHH)
VHH: B22 VHH with A14P, G26R, R27F, V29L, G30D, S31Y, S33A, M34I
notes: as for B1
B26: 2HCD59 (VHH)
VHH: B22 VHH with L11S, V12E, A14P, W53R
notes: as for B1
B27: R2MUC36 (VHH)
VHH: QVQLQESGGGLVQAEGSLRLSCAASGRTRDANAMGWFRQAPGKERELVAAISWSGSRTYYADSVKGRFTISRDNVMHTVYLSMNSLKPEDTAVYYCAADRSIEVQIADYDYWGRGTQVTVSS
notes: as for B1
B28: 2HCD16 (VHH)
VHH: QVQLQESGGGLVQAGGSLRLSCAASGRTFSRQSMGWFRQAPGKEREFVAVITWSGGSPYYADSVRGRFTISRDNAKNTVYLQMNSLKPEDTAVYYCAAPVSYGSQWLADYWGQGTQVTVSS
notes: as for B1
B29: R3CD7 (VHH)
VHH: B28 VHH with T28S, R31S, Q32V, S33N, T52D, A61T, A75S, P99G, Q105R, A108G
notes: as for B1
B30: R3CD105 (VHH)
VHH: B28 VHH with R31N, Q32Y, S33N, V50A, T52D, D62A, K76E, V100L, Q105T
notes: as for B1
B31: 2HCD73 (VHH)
VHH: B28 VHH with K43E
notes: as for B1
B32: 2HCD22 (VHH)
VHH: B28 VHH with G16D, R65K
notes: as for B1
B33: 2HCD81 (VHH)
VHH: B28 VHH with R31S, Q32Y, S33N, T52S, R65K, Q105S
notes: as for B1
B34: R3CD18 (VHH)
VHH: QVQLQESGGGLVQAGGSLRLSCAASGRTFSNSNMGWFRQAPGKEREFVAVIDWSGGSPYYTDSVRGRFTISRDNAKNTVYLQMNRLKPEDTAVYYCAGGVSFGSRWLSDYWGQGTQVTVSS
notes: as for B1
B35: 2HCD42 (VHH)
VHH: B28 VHH with R31S, Q32Y, S33A
notes: as for B1
B36: 2HCD35 (VHH)
VHH: B28 VHH with R31G, Y80H
notes: as for B1

Experiments:
human CD20 [1] = biological target: T1, human CD20 (human, UniProt P11836 1-297); assay: cell ELISA, crude periplasmic extract, CHO-K1 expressing human CD20 against parental CHO-K1
T1 construct: The forward primer starts at codon 2; also called hCD20; CHO-K1-hCD20
T1 sequence: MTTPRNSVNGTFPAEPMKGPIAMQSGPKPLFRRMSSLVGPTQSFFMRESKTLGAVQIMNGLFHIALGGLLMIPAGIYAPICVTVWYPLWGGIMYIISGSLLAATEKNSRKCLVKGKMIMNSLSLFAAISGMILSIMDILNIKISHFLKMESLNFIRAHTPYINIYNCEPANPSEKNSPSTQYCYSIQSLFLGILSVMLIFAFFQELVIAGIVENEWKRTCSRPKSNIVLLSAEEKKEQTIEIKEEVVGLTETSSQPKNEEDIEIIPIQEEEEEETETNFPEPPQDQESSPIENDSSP

human CD20 [2] = biological target: T1, human CD20; assay: FACS, 5 ug/ml VHH on CHO-K1 cells stably expressing human CD20, FITC anti-his detection
Protocol: To determine the binding activities of the VHHs specific for human or mouse CD20, FACS analysis was carried out. Specifically, CHO-K1 cells and CHO-K1 cells stably expressing human or mouse CD20 were incubated with 5 μg/ml of the VHHs produced in accordance with the application. A monoclonal FITC labelled anti-his antibody (Genscript #A01620) was applied as secondary stain. FACS analysis was done on a FacsCalibur flow cytometer (Becton Dickinson).

mouse CD20 = biological target: T2, mouse CD20 (mouse, UniProt P19437 1-291); assay: cell ELISA, crude periplasmic extract, CHO-K1 expressing mouse CD20 against parental CHO-K1
T2 construct: whole, on cells; also called mCD20; CHO-K1-mCD20
T2 sequence (looked up): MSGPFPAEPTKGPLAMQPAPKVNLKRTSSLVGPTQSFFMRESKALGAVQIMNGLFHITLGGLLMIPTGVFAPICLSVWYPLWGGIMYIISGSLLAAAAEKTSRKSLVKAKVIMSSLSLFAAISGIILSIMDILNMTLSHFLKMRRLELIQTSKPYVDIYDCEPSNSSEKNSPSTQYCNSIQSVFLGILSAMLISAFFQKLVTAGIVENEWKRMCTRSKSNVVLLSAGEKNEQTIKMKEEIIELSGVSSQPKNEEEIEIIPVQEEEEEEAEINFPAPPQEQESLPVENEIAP
Protocol: The library was subjected to 3 consecutive rounds of panning (in solution), performed on stably transfected CHO-K1 cells expressing mouse CD20. A parallel panning was performed on parental (non-transfected CHO-K1) cells to serve as negative control for the calculation of CD20-specific phage enrichment. The enrichment for antigen-specific phages was assessed after each round of panning by comparing the number of phagemid particles eluted from transfected cells with the number of phagemid particles eluted from parental cells. […] In total, 285 colonies (95 from each round of panning) were randomly selected and their crude periplasmic extracts (including soluble VHHs) were analyzed by cell ELISA for specific binding to transfected CHO-K1, as compared to parental cells. […] The 11 different VHHs belong to 2 different groups.
The library was subjected to 2 consecutive rounds of panning (in solution), performed on stably transfected CHO-K1 cells expressing mouse CD20 as described above. Here, the phage population was enriched (for antigen-specific phages) about 2- and 45-fold after 1st and 2nd rounds of panning, respectively. Here, 190 colonies, randomly picked from 2nd round, were tested by cell ELISA as above and 10 colonies scored positive. Based on sequence data, the 10 positive colonies represented 8 different VHHs (FIG. 4, bottom panel). The 8 different VHHs belong to 2 different groups. One of the groups identified here is the same group as one of those identified above.

Binder	binding result (human CD20 [1])	binding result (mouse CD20)	also measured
B1	binds	–	–
B2	–	–	binding result (human CD20 [2]): binds
B3	–	–	binding result (human CD20 [2]): binds
B4	–	binds	–
B5	–	binds	–
B6	–	binds	–
B7	–	binds	–
B8	–	binds	–
B9	–	binds	–
B10	–	binds	–
B11	–	binds	–
B12	–	binds	–
B13	–	binds	–
B14	–	binds	–
B15	–	binds	–
B16	–	binds	–
B17	–	binds	–
B18	–	binds	–

Binder	binding result (human CD20 [1])	binding result (mouse CD20)	also measured
B19	–	binds	–
B20	–	binds	–
B21	–	binds	–
B22	binds	–	–
B23	–	–	binding result (human CD20 [2]): binds
B24	binds	–	–
B25	binds	–	–
B26	binds	–	–
B27	–	binds	–
B28	binds	–	–
B29	binds	–	–
B30	binds	–	–
B31	–	–	binding result (human CD20 [2]): binds
B32	binds	–	–
B33	–	–	binding result (human CD20 [2]): binds
B34	binds	–	–
B35	binds	–	–
B36	binds	–	–
